Assay results taken from PMC2690687.

Molecular target: Epstein-Barr Nuclear Antigen 1 (EBNA1), wild type (Epstein-Barr virus) (UniProt P03211)

## Epstein-Barr Nuclear Antigen 1 (EBNA1), wild type (from UniProt P03211 1-641) (natural protein)
  transactivation of TKp-luciferase reporters with one to 20 EBNA1-binding sites, 20 sites over a single site, C33a cells: 150 fold
